Experiment [1] addresses T1, human complement factor D purified from serum (human, UniProt P00746 26-253).
T1 construct: serum-purified (CompTech); also called hCFD-Comptech; CFD
In words: SPR MX96.

Experiment [2] has as its target T2, recombinant cynomolgus CFD, His-tagged (cynomolgus).
T2 construct: also called rcyCFD-His; recombinant Cyno-CFD
Description: SPR MX96.

Experiment [3] deals with T3, recombinant human CFD, His-tagged (human, UniProt P00746 26-253).
T3 construct: also called rhCFD-His
T3 sequence (P00746 26-253 limits assumed): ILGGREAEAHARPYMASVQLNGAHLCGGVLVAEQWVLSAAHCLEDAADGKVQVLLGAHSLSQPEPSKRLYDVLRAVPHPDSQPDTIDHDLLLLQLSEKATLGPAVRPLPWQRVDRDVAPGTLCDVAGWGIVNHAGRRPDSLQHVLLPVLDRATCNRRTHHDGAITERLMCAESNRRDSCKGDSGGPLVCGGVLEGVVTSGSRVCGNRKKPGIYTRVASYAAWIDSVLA
In words: SPR MX96.

Experiment [4] deals with T4, recombinant human CFD mutant 1 (R157A, R207A), His-tagged (human, UniProt P00746 26-253).
T4 construct: positions are linear positions in the mature protein; also called rhCFD-mut1-His; Mut1
T4 sequence (P00746 26-253 R182A/R232A limits assumed): as the sequence (P00746 26-253 limits assumed) above, with R157A, R207A counted along it
Description: SPR MX96.

Experiment [5] deals with T1, human complement factor D purified from …. Description: Biacore, protein A capture.
Experiment [6] concerns the target T5, serum purified human Complement Factor D (human, UniProt P00746 26-253).
T5 construct: Serum purified protein flowed over the captured antibodies; also called CFD; human CFD
In words: SPR Biacore, antibody on protein A chip, single cycle kinetics, 25 C. A general note: In SPR one partner is held on a chip, and binding of the other changes the refractive index at the surface.

For experiment [7], the target named is T5, serum purified human Complement Factor D. Description: SPR Biacore, antibody on protein A chip, single cycle kinetics, 37 C.
For experiment [8] the target is unchanged. Description: SPR Biacore, antibody on protein A chip, single cycle kinetics, 25 C. This is another data set of the same source.
For experiment [9] the target is unchanged. Description: SPR Biacore, antibody on protein A chip, single cycle kinetics, 37 C. The source holds these as a separate data set.

T1 sequence (P00746 26-253): as the sequence (P00746 26-253 limits assumed) above
T5 sequence (P00746 26-253): as the sequence (P00746 26-253 limits assumed) above

B1: KCD065 (antibody, V domains shown)
VH: QVQLQQSGAELARPGASVKMSCKASGYTFTTYTIHWVKQRPGQGLEWIGYINPSSDFTNYNQNFADKATLTADRSSSTAYMQLSSLTSEESAVYYCAIRLGYDRQGWYFDVWGAGTTVTVSS
VL: DIVMTQSHKFLSTSLGDRVSITCKASQDVGSAVAWYQQKPGQSPDLLIYWTFTRHTGVPDRFTGSRSGTDFTLTISNVQSGDLADYFCQQYSNYPLTFGGGTKLEIK
The Kd is the equilibrium constant for the complex coming apart. On to B1, for which the dissociation constant Kd in experiment [1] is 3.3 nM; in [2], 25 nM; in experiment [3], 17 nM; in [4], 25 nM.

B2: KCD038 (antibody, V domains shown)
VH: EVQLQQSGPELVKPGTSMKISCKASGYSFADYTMNWVKQSHGKSLEWIGLINPYNGGTSYNQKFMGKATLTVDKSSSTAYMELLSLTSEDSAVYYCARWGTYSHNYDYAMDYWGQGTSVTVSS
VL: DVVMTQTPLSLPVSLGDQASISCRSSQSLVHSNGNTYLYWYFQKPGQSPKFLIYKVSNRFSGISDRFSGSGSGTDFTLKISRVEAEDLGVYFCSQSTHVPPFTFGSGTKLEIK
Regarding B2, the dissociation constant Kd stood at 37 nM in [1], 45 nM in [2], 48 nM in experiment [3] and 84 nM in experiment [4].

B3: KCD039 (antibody, V domains shown)
VH: EVQLQQSGPEMVKPGASMKISCKASGYSFADYTLNWVKQSHGKSLEWIGLINPYNGGTSYNQKFMGKATLTVDKSSSTAYMELLSLTSEDSAVYYCTRWGTYSHNYDYAMDYWGQGTSVTVSS
VL: DVVMTQTPLSLSVSLGDQASISCRSSQSLVHSNGNTYLYWYLQKPGQSPKLLIYKVSNRFSGITDRFSGSGSGTDFTLKISRVEAEDLGVYFCSQSTHVPPFTFGSGTKLEIK
Regarding B3, the Kd in experiment [1] stood at 53 nM; in [2], 39 nM; in experiment [3] it was 43 nM; in experiment [4], 70 nM.

B4: KCD119 TAF heavy chain / KCD119 TAF light chain (antibody, V domains shown)
VH: EVQLVESGGGLVQPGGSLRLSCAASGYTFTDYYMNWVRQAPGKGLEWIGDINPNTGDTSYNADFKRRFTFSLDTSKSTAYLQMNSLRAEDTAVYYCTREGPSFAYWGQGTLVTVSS
VL: DIQLTQSPSSLSASVGDRVTITCRSSQTIVHSNGDTYLEWYQQKPGKAPNLLIYKVSNRFSGVPSRFSGSGSGTDFTLTISSLQPEDFATYYCFQGSHVPPTFGQGTKVEIK
notes: humanized full IgG captured on protein A; also called TAF KCD119
For orientation: koff means the first-order rate constant of dissociation. Higher therefore signals fast dissociation. What is called kon is the rate constant with which the complex forms. High values mean faster complex formation, low ones slower complex formation. In experiment [5], B4 showed a Kd of 0.23 nM, a koff of 0.00103 s⁻¹ and a kon of 4.46e+06 M⁻¹ s⁻¹.

B5: KCD119 TAF / KCD119 TAF (antibody, V domains shown)
VH: EVQLVESGGGLVQPGGSLRLSCAASGYTFTDYYMNWVRQAPGKGLEWIGDINPNTGDTSYNADFKRRFTFSLDTSKSTAYLQMNSLRAEDTAVYYCTREGPSFAYWGQGTLVTVSS
VL: DIQLTQSPSSLSASVGDRVTITCRSSQTIVHSNGDTYLEWYQQKPGKAPNLLIYKVSNRFSGVPSRFSGSGSGTDFTLTISSLQPEDFATYYCFQGSHVPPTFGQGTKVEIK
notes: Humanized KCD119; tested as full antibody captured on protein A; also called D19 TAF
Turning to B5, the Kd is 0.113 nM in [6], 0.499 nM in experiment [7], 0.113 nM in [8] and 0.499 nM in experiment [9]. For the same molecule, the koff in experiment [6] stood at 0.00155 s⁻¹; in [7] it was 0.00628 s⁻¹; in experiment [8], 0.00155 s⁻¹; in experiment [9], 0.00628 s⁻¹. Moreover, the kon in experiment [6] amounted to 1.38e+07 M⁻¹ s⁻¹; in [7], 1.26e+07 M⁻¹ s⁻¹; in experiment [8] it was 1.38e+07 M⁻¹ s⁻¹; in experiment [9], 1.26e+07 M⁻¹ s⁻¹.

B6: 54V heavy chain / KCD119 TAF light chain (antibody, V domains shown)
VH: EVQLVESGGGLVQPGGSLRLSCAASGYTFTDYYMNWVRQAPGKGLEWIGDINPVTGDTSYNADFKRRFTFSLDTSKSTAYLQMNSLRAEDTAVYYCTREGPSFAYWGQGTLVTVSS
VL: DIQLTQSPSSLSASVGDRVTITCRSSQTIVHSNGDTYLEWYQQKPGKAPNLLIYKVSNRFSGVPSRFSGSGSGTDFTLTISSLQPEDFATYYCFQGSHVPPTFGQGTKVEIK
notes: IgG; also called 54V/wt
In experiment [5], B6 had an equilibrium dissociation constant (Kd) of 0.153 nM, a koff of 0.000627 s⁻¹ and a kon of 4.09e+06 M⁻¹ s⁻¹.

B7: 54V59D heavy chain / 101V light chain (antibody, V domains shown)
VH: EVQLVESGGGLVQPGGSLRLSCAASGYTFTDYYMNWVRQAPGKGLEWIGDINPVTGDTDYNADFKRRFTFSLDTSKSTAYLQMNSLRAEDTAVYYCTREGPSFAYWGQGTLVTVSS
VL: DIQLTQSPSSLSASVGDRVTITCRSSQTIVHSNGDTYLEWYQQKPGKAPNLLIYKVSNRFSGVPSRFSGSGSGTDFTLTISSLQPEDFATYYCFQGSHVPVTFGQGTKVEIK
notes: IgG
As for B7, in experiment [5], the affinity, expressed as Kd, was 0.0321 nM; the koff amounted to 0.000213 s⁻¹; the on-rate constant (kon) was determined as 6.64e+06 M⁻¹ s⁻¹.

B8: 54V heavy chain / 101V light chain (antibody, V domains shown)
VH: EVQLVESGGGLVQPGGSLRLSCAASGYTFTDYYMNWVRQAPGKGLEWIGDINPVTGDTSYNADFKRRFTFSLDTSKSTAYLQMNSLRAEDTAVYYCTREGPSFAYWGQGTLVTVSS
VL: DIQLTQSPSSLSASVGDRVTITCRSSQTIVHSNGDTYLEWYQQKPGKAPNLLIYKVSNRFSGVPSRFSGSGSGTDFTLTISSLQPEDFATYYCFQGSHVPVTFGQGTKVEIK
notes: IgG
In experiment [5], B8 registered a dissociation constant (Kd) of 0.0949 nM, an off-rate constant (koff) of 0.000463 s⁻¹ and a kon of 4.88e+06 M⁻¹ s⁻¹.

B9: 54V59D heavy chain / KCD119 TAF light chain (antibody, V domains shown)
VH: EVQLVESGGGLVQPGGSLRLSCAASGYTFTDYYMNWVRQAPGKGLEWIGDINPVTGDTDYNADFKRRFTFSLDTSKSTAYLQMNSLRAEDTAVYYCTREGPSFAYWGQGTLVTVSS
VL: DIQLTQSPSSLSASVGDRVTITCRSSQTIVHSNGDTYLEWYQQKPGKAPNLLIYKVSNRFSGVPSRFSGSGSGTDFTLTISSLQPEDFATYYCFQGSHVPPTFGQGTKVEIK
notes: IgG
Consider B9, for which, in experiment [5], the dissociation constant Kd came out at 0.0526 nM, the koff came to 0.000307 s⁻¹ and the on-rate (kon) amounted to 5.85e+06 M⁻¹ s⁻¹.

B10: KCD135 (antibody, V domains shown)
VH: EVQLQQSGPELVKPGASVRMSCKASGYIFTDYSIHWVKQSHGKSLEWIGYINPNNGGTSYNQKFKGKATLTVNKSSTTAYMELRSLTSEDSAVYFCARDTTIVGDYWGQGTTLTVSS
VL: DIVMTQSQKFMSTSVGDRVSVTCKASQHVGTNVVWYQQKPGQSPKALIYSASYRYSGVPDRFSGSGSGTDFTLTISNVQSEDLAEYFCQQFNSYPLTFGGGTKLEIK
Take B10: the Kd was determined as 21 nM in experiment [1], 18 nM in experiment [2], 13 nM in experiment [3] and 15 nM in experiment [4].

B11: KCD050 (antibody, V domains shown)
VH: QVQLKESGPGLVAPSQSLSITCTVSGFSLNSYGVQWVRQPPGQGLEWLVVIWRDGTITYNSALKSRLSINKDNSKSQVFLKMNSLQTDDTAMYYCGRTSHYGNFNYYVMDYWGQGTAVTVSS
VL: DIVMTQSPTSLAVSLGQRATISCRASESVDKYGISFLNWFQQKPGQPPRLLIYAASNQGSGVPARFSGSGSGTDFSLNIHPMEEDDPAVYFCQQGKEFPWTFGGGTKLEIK
As for B11, the Kd came out at 2 nM in [1], 8.2 nM in [2], 3.1 nM in experiment [3] and 1.9 nM in [4].

B12: KCD052 (antibody, V domains shown)
VH: QVQLKESGPGLVAPSQSLSITCTVSGFSLNSYGVQWVRQPPGQGLEWLGVIWRDGSITYNSALKSRLSIRKDNSKSQVFLKMNSLQTDDTAMYYCGRTSHYGNYNYYVMDYWGQGTAVTVSS
VL: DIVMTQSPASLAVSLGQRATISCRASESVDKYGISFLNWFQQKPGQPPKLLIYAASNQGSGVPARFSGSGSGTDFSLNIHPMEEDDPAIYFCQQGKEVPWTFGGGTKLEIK
Take B12: the Kd in experiment [1] amounted to 3.1 nM; in experiment [2] it was 10 nM; in experiment [3], 3.7 nM; in [4], 2.5 nM.

B13: KCD008 (antibody, V domains shown)
VH: EVQLQQSGPELVKAGASVKMSCTASGFNIKDTYMHWVKQRPEQGLAWIGRIDPANGNIKYDPKFQGKATITADTSSNTAYLQLSSLTSDDTAVYYCTSAMDYWGQGTSVTVSS
VL: QIVLTQSPEIMSASPGEKVTMTCSARSSVSYMYWYQQKPGSSPRLLIYDTSNLASGVPVRFSGSGSGTSYSLTISRMETEDAATYYCQQWSTYPFTFGSGTKLEIK
On to B13, for which the dissociation constant (Kd) in experiment [1] was 4.4 nM; in experiment [2], 66 nM; in experiment [3], 3.2 nM; in experiment [4], 5.7 nM.

B14: KCD017 (antibody, V domains shown)
VH: DVQLQESGPDLVKPSQSLSLTCTVTDYSITSGYSWHWIRQFPGNKLEWLGYIHSSGNTNYNPSLKSRFSITRDTSKNQFFLQLNSVTSEDTATYYCALHYYGSSFGWYFDVWGAGTTVTVSS
VL: DIVMTQSHKFMSTSVGDRVYITCKASQDVGTAVAWYQQTSGQSPKLLIYWASTRHTGVPDRFTGSGSGTDFTLTLSNVQSEDLADYFCQQYTSYPLTFGAGTKLELK
In the case of B14, the Kd in [1] worked out at 7.8 nM; in experiment [2] it was 11 nM; in experiment [3] it was 13 nM; in experiment [4], 10 nM.

B15: KCD210 (antibody, V domains shown)
VH: EVQLQQSGPVLVKPGASVTMSCKASGYTFTEYYMNWVKQSHGKSLDWIGVINPYSGGTSYKQKFKDKATLTVDKSSSTAYMELNGLTSEDSAVYFCVRGGLRRNYFDYWGQGTTLTVSS
VL: EIVLTQSPALMTASPGEKVTITCSVSSSISSTNLHWYQQKSGTSPKPWIFGTSNLASGVPVRFSGSGSGTSYSLTISNMEAEDAATYYCQQWNSYPFTFGTGTKLEIK
Regarding B15, the dissociation constant (Kd) was found to be 3.5 nM in experiment [1], 3.6 nM in experiment [2], 2.9 nM in experiment [3] and 2.9 nM in experiment [4].

B16: KCD018 (antibody, V domains shown)
VH: QVQLQQSAAELARPGASVKMSCKASGYTFTSYTVHWVKQRPGQGLEWIGYINPSSGFTDYNQKFKDKTTLTADISSSTAYIQLSSLTSEDSAVYYCARRGVNWSWFAYWGQGTLVTVSA
VL: NIMMTQSPSSLAVSAGEKVTMSCKSSQSVLYSSNQKNYLAWYQQKPGQSPQLLIYWASTRESGVPERFTGSGSGTDFTLTISSVQAEDLAVYYCHQYLSSWTFGGGTKLEIK
For B16, the Kd was 41 nM in experiment [1], 52 nM in experiment [2], 41 nM in experiment [3] and 99 nM in [4].

The record behind these values is patent US20180334496A1 (KODIAK SCIENCES, published 2018).
